According to patent US10407503B2, “Fully human antibodies and fragments recognizing human c-Met” (THE REGENTS OF THE UNIVERSITY OF CALIFORNIA, priority 2012, dated 2019):
Entries after “also recorded” stand apart in the source; their conditions may differ.

Key:
[1] = target: T1, c-MET on the surface of Hcc827 or Hcc827-GR6 cells (human, UniProt P08581 25-1390); assay: flow cytometry on Hcc827-GR6 cells, one-site total binding fit
T1 construct: whole, on cells; The cells express the receptor endogenously, and MET is amplified in Hcc827-GR6; also called cell surface MET
Procedure: (§1) The affinities of the cys-diabodies were evaluated by flow cytometry. Serial diluted cys-diabodies were incubated with Hcc827-GR6 cells at 4 degrees for 2 hours. The cys-diabodies were detected with 1/100 mouse anti-c-Myc antibody (Sigma, Cat# M4439) and stained with 1/100 PE or FITC conjugated goat anti mouse IgG polyclonal antibody (Jackson ImmunoResearch) in flow buffer.
(§2) The affinity of these 3 cys-diabodies were evaluated by flow cytometry. The concentrations of the purified proteins were determined by their A280, measured with Nanodrop 2000 (Thermal Scientific), and their calculated extinction coefficient (ProtParam tool, expasy.org). The binding curve was fitted with one-site total binding model by GraphPad Prism.

[2] = target: T1, c-MET on the surface of Hcc827 or …; assay: flow cytometry binding curve on cells (the sheet does not name them; paragraph 217: Hcc827 GR6 cell line)
Procedure: as §1, §2

[3] = target: T2, mouse MET-hIgG Fc fusion protein (Sino Biological Inc.) (mouse; human, UniProt P16056 25-931, limits assumed); assay: capture ELISA: cys-diabody coated on the plate, mouse MET-hIgG Fc applied, detected with alkaline phosphatase anti-human IgG
T2 construct: Bought protein; also called mouse MET protein; MET-hFc
Procedure: 1 µg of purified anti-MET cys-diabodies in 100 µL PBS were used to coat each well at 4 degree overnight. Anti-EpCAM cys-diabody or 2% milk-PBS were used for negative controls. The overnight coated plate was then washed with PBS and blocked with 2% milk-PBS at 37 degree for 2 hours. The plate was then washed with PBS before adding 0.1 µg human or mouse MET-hIgG Fc fusion protein (purchased from Sino Biological Inc.) in 100 µL, 2% milk-PBS to each well. The plate was incubated at room temperature for 1.5 hours, and then washed with PBS-Tween and PBS. The captured human or mouse MET-hIgG Fc were detected with alkaline phosphatase conjugated goat anti-human IgG.
C2, H2 and H5 cys-diabodies were used to coat 96-well ELISA plate to capture human or mouse MET-hIgG Fc fusion protein. The human IgG Fc on the fusion protein was detected with alkaline phosphatase conjugated goat anti-human IgG. The results in FIG. 4 show H2 cys-diabody can bind to both human and mouse MET protein, while C2 and H5 cys-diabodies show minimal cross reactivity to the mouse MET. Anti-EpCAM H9 cys-diabody or 2% milk-PBS were used as negative controls.

[4] = target: T1, c-MET on the surface of Hcc827 or …; assay: phage flow cytometry on Hcc827 cells, bound phage detected with FITC anti-M13 antibody
Procedure: For phage antibodies, flow cytometry was used to confirm their binding to c-MET expressing cells. Bacteria culture containing phage was concentrated 30 times into PBS according to published method (Antibody Engineering Methods and Protocols, Benny K. C. Lo). $2 \sim 5 \times 10^5$ c-MET positive Hcc827 or Hcc827-GR6 cells (Engelman et. al, Science, 2007) were incubated with 100 ul concentrated phage and 30 ul 4% milk-PBS on ice for 1 hour. Cells were then washed using flow buffer (PBS, 1% FBS, 2 mM EDTA), and the binding phage antibodies were detected by FITC conjugated anti-M13 monoclonal antibody (Santa Cruz Biotechnology, Cat# sc-53005 Fitc).

human MET protein = target: T3, human MET protein (Homo sapiens, UniProt P08581); assay: Anti-MET ELISA, human MET-hIgG Fc captured by coated cys-diabodies; assay type: binding; conditions: coated cys-diabody captures human MET-hFc
T3 construct: purchased Sino Biological Inc
Procedure: (§3) Three rounds of selections on human MET protein were performed which were successfully reformatted and purified 3 cys-diabodies. C2, H2 and H5 cys-diabodies were tested for cross-reactivity to mouse MET protein. Different cys-diabodies were coated to 96-well plate (milk or anti-EpCAM cys-diabody was used as negative control). Either mouse or human MET protein was applied to the coated cys-diabodies. Then the MET-hFc proteins were detected by anti-human Fc antibody.
(§4) 1 μg of purified anti-MET cys-diabodies in […], PBS were used to coat each well at 4 degree overnight. Anti-EpCAM cys-diabody or 2% milk-PBS were used for negative controls. The overnight coated plate was then washed with PBS and blocked with 2% milk-PBS at 37 degree for 2 hours. […] The captured human or mouse MET-hIgG Fc were detected with alkaline phosphatase conjugated goat anti-human IgG.
(§5) C2, H2 and H5 cys-diabodies were used to coat 96-well ELISA plate to capture human or mouse MET-hIgG Fc fusion protein. The human IgG Fc on the fusion protein was detected with alkaline phosphatase conjugated goat anti-human IgG. […]
(§6) Three rounds of selections on human MET protein were performed, and three cys-diabodies were reformatted and purified (the C2, H2 and H5 cys-diabodies). […] Then the MET-hFc proteins were detected by anti-human Fc antibody.

mouse MET protein = target: T4, mouse MET protein (Mus musculus, UniProt P16056); assay: Anti-MET ELISA, mouse MET-hIgG Fc captured by coated cys-diabodies (cross reactivity); assay type: binding; conditions: coated cys-diabody captures mouse MET-hFc
T4 construct: purchased Sino Biological Inc
Procedure: as §3, §4, §5, §6

Hcc827 cells = assay: MTS cell growth assay, parental Hcc827 cells; assay type: cell-based; conditions: 3 days, with 1 micromolar gefitinib
Procedure: (§7) These diabodies also show therapeutic effects on resistant cells with MET amplification. […] The diabodies were also applied to the resistant cell line GR6 with or without 1 μM gefitinib.
(§8) Cell growth and inhibition were evaluated by MTS assay. The MTS assay was based on the ability of live cells to convert 3-(4,5-dimethylthiazol-2-yl)-5-(3-carboxymethoxyphenyl)-2-(4-sulfophenyl)-2H-tetrazolium (MTS) to formazan. The quantity of formazan product was measured by 500 nm absorbance, which is proportional to the number of living cells in culture. The assay was performed with the CellTiter96 AQueous Assay Kit from Promega (Cat# G5421), according to the recommended protocol. 2×10^4 cells were seeded in each well of the 96-well plates and treated with different combination of antibodies and drugs for 3 days before the MTS assay. Each combination of cell line and drug and antibody treatment was set up in at least 4 replicate wells. And the results were normalized to the cells treated with media only.
(§9) Different cell lines were treated with C2, H2 or H5 cys-diabodies at different concentrations with or without 1 micromolar of gefitinib for 3 days, and then the cell growth was evaluated with MTS assay. […] All three cys-diabodies show no effects on the parental Hcc827 cells without gefitinib.
These diabodies also show therapeutic effects on resistant cells with MET amplification. […]

Hcc827-GR6 cells = assay: MTS cell growth assay, gefitinib resistant Hcc827-GR6 cells; assay type: cell-based; conditions: 3 days, with or without 1 μM gefitinib, MET amplified
Procedure: as §7, §8, §9
These diabodies also show therapeutic effects on resistant cells with MET amplification. The parental cell line, Hcc827, was treated with the diabodies for 3 days, and the diabodies show no effects on the growth of the parental line at all.

T1 sequence (P08581 25-1390): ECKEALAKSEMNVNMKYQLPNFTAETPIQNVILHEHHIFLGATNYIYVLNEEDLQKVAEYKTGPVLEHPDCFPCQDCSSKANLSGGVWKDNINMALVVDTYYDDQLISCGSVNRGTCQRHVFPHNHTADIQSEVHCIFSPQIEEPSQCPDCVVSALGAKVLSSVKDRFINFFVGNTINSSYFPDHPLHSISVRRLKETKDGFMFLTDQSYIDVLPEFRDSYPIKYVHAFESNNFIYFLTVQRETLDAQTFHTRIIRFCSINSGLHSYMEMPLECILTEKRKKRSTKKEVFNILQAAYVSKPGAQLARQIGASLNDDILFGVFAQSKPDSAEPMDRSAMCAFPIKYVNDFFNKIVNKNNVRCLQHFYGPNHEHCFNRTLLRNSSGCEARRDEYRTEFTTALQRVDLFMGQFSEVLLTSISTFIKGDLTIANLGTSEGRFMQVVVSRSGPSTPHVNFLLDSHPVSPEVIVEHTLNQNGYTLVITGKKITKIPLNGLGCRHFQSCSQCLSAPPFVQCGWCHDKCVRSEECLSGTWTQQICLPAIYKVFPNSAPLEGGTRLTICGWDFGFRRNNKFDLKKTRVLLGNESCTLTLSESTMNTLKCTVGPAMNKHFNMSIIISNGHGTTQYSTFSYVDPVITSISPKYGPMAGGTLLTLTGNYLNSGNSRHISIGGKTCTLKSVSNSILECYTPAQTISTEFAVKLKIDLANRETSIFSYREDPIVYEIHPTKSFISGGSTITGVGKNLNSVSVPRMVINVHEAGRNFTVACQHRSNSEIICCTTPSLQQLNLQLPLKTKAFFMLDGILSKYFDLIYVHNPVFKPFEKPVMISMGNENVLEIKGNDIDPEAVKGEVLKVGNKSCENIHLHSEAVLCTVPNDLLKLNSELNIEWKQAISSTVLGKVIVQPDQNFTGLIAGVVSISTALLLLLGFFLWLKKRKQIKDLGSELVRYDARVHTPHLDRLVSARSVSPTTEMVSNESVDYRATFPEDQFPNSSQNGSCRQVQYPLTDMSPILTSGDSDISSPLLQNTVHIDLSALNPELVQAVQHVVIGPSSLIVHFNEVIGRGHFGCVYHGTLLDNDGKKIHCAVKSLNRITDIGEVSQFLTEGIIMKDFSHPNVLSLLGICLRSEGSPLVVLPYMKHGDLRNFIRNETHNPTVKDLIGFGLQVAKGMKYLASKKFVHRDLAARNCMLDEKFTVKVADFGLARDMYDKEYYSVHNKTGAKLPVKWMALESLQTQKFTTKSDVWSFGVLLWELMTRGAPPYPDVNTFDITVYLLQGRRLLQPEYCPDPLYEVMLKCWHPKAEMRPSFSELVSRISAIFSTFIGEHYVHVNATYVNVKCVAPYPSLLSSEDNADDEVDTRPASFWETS
T4 sequence (P16056 with tags, fused parts or gaps limits assumed): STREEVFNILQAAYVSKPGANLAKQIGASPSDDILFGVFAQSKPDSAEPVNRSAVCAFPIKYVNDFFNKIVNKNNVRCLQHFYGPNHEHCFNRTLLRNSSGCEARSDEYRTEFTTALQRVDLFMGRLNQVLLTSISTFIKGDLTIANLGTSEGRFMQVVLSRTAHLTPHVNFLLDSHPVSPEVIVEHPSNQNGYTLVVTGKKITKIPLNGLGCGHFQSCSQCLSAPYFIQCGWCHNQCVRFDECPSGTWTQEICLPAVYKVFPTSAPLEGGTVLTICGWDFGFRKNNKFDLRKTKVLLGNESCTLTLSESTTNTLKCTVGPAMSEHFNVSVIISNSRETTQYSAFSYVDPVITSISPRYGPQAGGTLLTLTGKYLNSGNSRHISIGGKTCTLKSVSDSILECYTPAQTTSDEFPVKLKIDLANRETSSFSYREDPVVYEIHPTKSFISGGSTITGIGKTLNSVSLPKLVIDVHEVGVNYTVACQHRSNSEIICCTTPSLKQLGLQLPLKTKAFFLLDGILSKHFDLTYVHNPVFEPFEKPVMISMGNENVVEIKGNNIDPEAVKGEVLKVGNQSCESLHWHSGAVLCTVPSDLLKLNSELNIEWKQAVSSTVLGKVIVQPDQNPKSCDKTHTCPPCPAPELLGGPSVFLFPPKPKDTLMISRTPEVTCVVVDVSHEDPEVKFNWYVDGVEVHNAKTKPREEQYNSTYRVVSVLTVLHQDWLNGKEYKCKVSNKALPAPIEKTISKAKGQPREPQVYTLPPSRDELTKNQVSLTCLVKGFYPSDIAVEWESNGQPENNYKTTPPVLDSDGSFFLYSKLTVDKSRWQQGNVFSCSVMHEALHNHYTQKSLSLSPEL
T4 sequence (P16056 25-306 limits assumed): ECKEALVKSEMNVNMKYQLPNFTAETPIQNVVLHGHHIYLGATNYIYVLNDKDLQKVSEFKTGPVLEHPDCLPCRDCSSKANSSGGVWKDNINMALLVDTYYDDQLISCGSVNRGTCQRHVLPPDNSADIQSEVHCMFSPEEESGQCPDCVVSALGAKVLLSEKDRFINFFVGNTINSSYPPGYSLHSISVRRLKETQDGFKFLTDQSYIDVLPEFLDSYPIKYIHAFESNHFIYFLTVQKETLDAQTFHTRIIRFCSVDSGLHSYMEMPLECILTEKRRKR
T3 sequence (P08581 with tags, fused parts or gaps limits assumed): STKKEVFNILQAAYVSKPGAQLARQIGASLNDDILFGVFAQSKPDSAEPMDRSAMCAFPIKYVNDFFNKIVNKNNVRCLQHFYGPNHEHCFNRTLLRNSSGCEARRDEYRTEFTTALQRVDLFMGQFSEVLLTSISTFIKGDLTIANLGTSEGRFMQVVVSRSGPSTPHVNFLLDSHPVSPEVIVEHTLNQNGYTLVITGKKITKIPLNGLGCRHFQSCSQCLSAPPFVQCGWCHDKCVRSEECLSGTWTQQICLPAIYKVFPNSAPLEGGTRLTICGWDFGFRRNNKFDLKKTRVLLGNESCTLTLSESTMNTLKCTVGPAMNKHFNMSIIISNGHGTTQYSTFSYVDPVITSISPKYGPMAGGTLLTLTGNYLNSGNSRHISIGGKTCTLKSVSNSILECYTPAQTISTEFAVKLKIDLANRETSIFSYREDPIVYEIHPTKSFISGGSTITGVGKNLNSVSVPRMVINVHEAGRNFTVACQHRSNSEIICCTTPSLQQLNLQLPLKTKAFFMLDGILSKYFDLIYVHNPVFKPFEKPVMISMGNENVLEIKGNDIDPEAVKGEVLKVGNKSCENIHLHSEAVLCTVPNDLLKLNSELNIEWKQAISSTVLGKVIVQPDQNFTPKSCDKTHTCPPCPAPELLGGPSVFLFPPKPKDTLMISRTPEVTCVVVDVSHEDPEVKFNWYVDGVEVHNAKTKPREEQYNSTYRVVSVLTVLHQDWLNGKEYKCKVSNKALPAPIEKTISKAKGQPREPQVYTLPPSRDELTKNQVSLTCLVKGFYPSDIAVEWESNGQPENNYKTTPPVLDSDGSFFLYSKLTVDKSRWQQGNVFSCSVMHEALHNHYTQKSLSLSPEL
T3 sequence (P08581 25-307 limits assumed): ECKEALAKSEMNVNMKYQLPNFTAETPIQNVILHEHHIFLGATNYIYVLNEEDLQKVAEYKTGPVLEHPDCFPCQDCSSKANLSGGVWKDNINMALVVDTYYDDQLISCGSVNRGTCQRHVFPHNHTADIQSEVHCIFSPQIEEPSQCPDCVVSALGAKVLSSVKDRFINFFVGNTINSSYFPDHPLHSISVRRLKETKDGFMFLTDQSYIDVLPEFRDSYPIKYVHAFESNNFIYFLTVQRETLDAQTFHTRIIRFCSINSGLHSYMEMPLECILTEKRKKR
T2 sequence (P16056 25-931 limits assumed): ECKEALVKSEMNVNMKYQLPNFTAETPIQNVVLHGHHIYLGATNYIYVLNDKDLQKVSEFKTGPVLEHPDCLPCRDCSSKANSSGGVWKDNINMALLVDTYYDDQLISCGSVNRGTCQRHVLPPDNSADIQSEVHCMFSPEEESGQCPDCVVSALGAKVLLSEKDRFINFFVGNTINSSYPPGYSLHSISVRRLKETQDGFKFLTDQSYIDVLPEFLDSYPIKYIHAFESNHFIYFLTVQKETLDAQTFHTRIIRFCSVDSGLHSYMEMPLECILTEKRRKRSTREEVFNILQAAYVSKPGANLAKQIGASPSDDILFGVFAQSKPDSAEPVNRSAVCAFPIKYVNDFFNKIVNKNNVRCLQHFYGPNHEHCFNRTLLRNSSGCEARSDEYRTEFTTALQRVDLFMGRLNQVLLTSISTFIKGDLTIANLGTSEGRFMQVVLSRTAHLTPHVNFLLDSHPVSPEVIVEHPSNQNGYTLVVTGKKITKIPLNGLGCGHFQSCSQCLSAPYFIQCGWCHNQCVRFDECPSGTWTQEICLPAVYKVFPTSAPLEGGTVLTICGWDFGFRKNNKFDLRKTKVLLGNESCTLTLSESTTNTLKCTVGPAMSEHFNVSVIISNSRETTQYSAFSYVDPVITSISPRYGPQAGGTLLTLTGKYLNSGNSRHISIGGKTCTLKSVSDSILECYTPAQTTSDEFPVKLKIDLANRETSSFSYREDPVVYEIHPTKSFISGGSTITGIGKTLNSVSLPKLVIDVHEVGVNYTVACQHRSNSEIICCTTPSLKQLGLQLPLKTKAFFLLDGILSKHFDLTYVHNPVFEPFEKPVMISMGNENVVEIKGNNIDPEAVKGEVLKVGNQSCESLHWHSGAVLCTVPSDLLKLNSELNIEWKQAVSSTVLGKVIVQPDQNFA

B1: C2 cys-diabody (other)
chain: QVQLQESGGGLVQPGGSLRLSCAASGFTFSSYAMSWVRQAPGKGLEWVSAISGSGGSTYYADSVKGRFTISRDNSKNTLYLQMNSLRAEDTAVYYCASQHVGEQSRYFDYWGQGTLVTVSSGGGGGSDIVMTQSPSSLSASIGDRVTITCRASHSISSYVNWYQKKPGKAPNLLIYAASYLPRGVPSRFSGSGLGTDFTLTISNLQPEDFATYYCQESYSTPYSFGQGTKVDIKRAAAEQKLISEEDLNGAAHHHHHHC
notes: Expressed in E. coli and purified through the His tag; also called C2 diabody
[1]
  Kd: 2.4 nM
[2]
  Kd: 2 nM
[3]
  binding result: no binding

B2: H5 cys-diabody (other)
chain: QVQLQESGGGLVQPGGSLRLSCAASGFTFSNYAMSWVRQAPGKGLEWVSAISGSGGSTYYADSVKGRFTISRDNSKNTLYLQMNSLRAEDTAVYYCAKDRFRAAAYWGQGTLVTVSSGGGGGSQSVLTQPPSVSAAPGQKVTISCTGSSSNIGAGYDVHWYQQLPGTAPKLLIYGNSNRPSGVPDRFSGSKSGTSASLAISGLQSEDEADYYCAAWDDILNGEIFGGGTKVTVLGAAAEQKLISEEDLNGAAHHHHHHC
notes: Expressed in E. coli and purified through the His tag; also called H5 diabody
[1]
  Kd: 4.6 nM
[2]
  Kd: 4.7 nM
[3]
  binding result: no binding

B3: F1 ScFv antibody (phage-displayed) (scFv)
scFv: QVQLVQSGAEVKKPGASVKVSCKASGYTFTDYYMHWVRQAPGEGLEWMGWMNPNSGGTNYAQKFQGRVTMTRDTSISTAYMELSRLRSDDTAVYYCARSHYWDSWSPGTLVTVSSGGGGGSGGGGSGGGGSSALTQPASVSGSPGQSITISCTGTSGDVGGYNYVSWYQQHPGKAPKLMIYDVSNRPSGVSNRFSGSKSGNTASLTISGLQAEDEADYYCTSYAGSRNLVFGGGTKLTVLG
notes: The fusion to the phage coat protein is not described
[4]
  binding result: binds

B4: C2 cys-diabody: human anti-c-Met cys-diabody comprising SEQ ID NO:18 (protein)
chain: QVQLQESGGGLVQPGGSLRLSCAASGFTFSSYAMSWVRQAPGKGLEWVSAISGSGGSTYYADSVKGRFTISRDNSKNTLYLQMNSLRAEDTAVYYCASQHVGEQSRYFDYWGQGTLVTVSSGGGGGSDIVMTQSPSSLSASIGDRVTITCRASHSISSYVNWYQKKPGKAPNLLIYAASYLPRGVPSRFSGSGLGTDFTLTISNLQPEDFATYYCQESYSTPYSFGQGTKVDIKRAAAEQKLISEEDLNGAAHHHHHHC
modifications: C2 cys-diabody sequence
Human MET protein
  binding to human MET protein: bind to only human MET
Mouse MET protein
  cross reactivity to mouse MET protein: bind to only human MET; also recorded: minimal cross reactivity to the mouse MET
Hcc827 cells
  effect on growth of sensitive Hcc827 cells with gefitinib: protects the sensitive Hcc827 cells from gefitinib inhibition
Hcc827-GR6 cells; listed as C2 diabody
  inhibition of growth of resistant Hcc827-GR6 cells: some inhibition at high concentrations; also recorded: inhibition only at high concentrations

B5: H5 cys-diabody: human anti-c-Met cys-diabody comprising SEQ ID NO:24 (protein)
chain: QVQLQESGGGLVQPGGSLRLSCAASGFTFSNYAMSWVRQAPGKGLEWVSAISGSGGSTYYADSVKGRFTISRDNSKNTLYLQMNSLRAEDTAVYYCAKDRFRAAAYWGQGTLVTVSSGGGGGSQSVLTQPPSVSAAPGQKVTISCTGSSSNIGAGYDVHWYQQLPGTAPKLLIYGNSNRPSGVPDRFSGSKSGTSASLAISGLQSEDEADYYCAAWDDILNGEIFGGGTKVTVLGAAAEQKLISEEDLNGAAHHHHHHC
modifications: H5 cys-diabody sequence
Human MET protein
  binding to human MET protein: bind to only human MET
Mouse MET protein
  cross reactivity to mouse MET protein: bind to only human MET; also recorded: minimal cross reactivity to the mouse MET
Hcc827-GR6 cells
  inhibition of growth of resistant Hcc827-GR6 cells: inhibition of the resistant cells at higher concentration
Hcc827-GR6 cells; listed as H5 diabody
  inhibition of growth of resistant Hcc827-GR6 cells: some inhibition at high concentrations; also recorded: inhibition only at high concentrations
